Reference: patent publication US20250325651A1

Experiments:
Experiment in all cases: sandwich ELISA (coated antibody, conditioned medium, anti-His detection), OD450 grade
[1] = target: hMPV026 hMPV F-CompA fusion protein (not cleaved by furin) (human metapneumovirus (strain A))
[2] = target: hMPV005 hMPV F-CompA fusion protein (human metapneumovirus (strain A))
[3] = target: hMPV027C, furin-cleaved form of hMPV027 hMPV F-CompA fusion protein (human metapneumovirus (strain A))
[4] = target: hMPV024 hMPV F-CompA fusion protein (human metapneumovirus (strain A))
[5] = target: hMPV027 hMPV F-CompA fusion protein (not cleaved by furin) (human metapneumovirus (strain A))
[6] = target: hMPV021 hMPV F-CompA fusion protein (human metapneumovirus (strain B))
[7] = target: hMPV033 hMPV F-CompA fusion protein (human metapneumovirus (strain A))
[8] = target: hMPV008 hMPV F-CompA fusion protein (human metapneumovirus (strain B))

Measured: OD450

MPE8 (antibody)
1 to 2 od: all assays above
